Test results taken from patent US20060199250A1, “Method for generating a mutant protein which efficiently binds a target molecule” (priority 2005, published 2006).

Legend:
[1] = Yeast two-hybrid ligand dose response assay (growth, OD600) of hERα LBD constructs toward DHB; type: cell-based; settings: in yeast; DHB vs E2
Protocol: Phenotypic screening of library variants was carried out based on a yeast two-hybrid system employing two constructs, the hERα LBD construct fused to the DNA binding domain of the yeast Gal4 transactivator, and the common mammalian transcriptional coactivator steroid receptor coactivator-1 (SRC-1) fused to the yeast Gal4 transcriptional activation domain. The hERα-SRC-1 interaction, which is elemental in the role of hERα as a transcriptional activator, is strengthened by the binding of agonist ligands to hERα. This system couples the strength of ligand-receptor interaction within host yeast cells to their growth on media lacking histidine and can be applied in either a selection or screening mode (Chen, et al. (2004) supra).
The plasmids from promising mutants based on this ligand response assay were isolated and re-transformed into fresh yeast cells, and the ligand response assay was carried out again to eliminate possible false-positives.
Plasmids, Strains, Reagents and Growth Media. […]
Ligand Dose Response Assay. […] These microtiter plates were incubated at 30° C. for 24 hours, after which cultures were mixed by pipetting, and OD600 readings were taken using a SPECTRAMAX® 340PC plate reader (Molecular Devices, Sunnyvale, Calif.).

[2] = Mammalian cell transactivation (luciferase) of full-length hERα constructs in HEC-1 cells toward DHB; type: cell-based, human
Protocol: Mammalian cell transactivation profiles for the wild-type hERα and the two best mutants, 4-S and 5-E, were carried out in estrogen receptor-negative human endometrial cancer (HEC-1) cells after cloning the hERα LBD from the chimeric yeast two-hybrid construct into the full-length estrogen receptor construct.
Mammalian Transfection and Luciferase Assay. Methods used for cell culture, transfection, and performance of luciferase assay are known in the art (Muthyala, et al. (2003) J. Med. Chem. 46:1589-1602).

B1: mutant 5-E: hERα mutant: Ala350Met, Leu346Ile, Met388Gln, Gly521Ser, Tyr526Asp, Phe461Leu, Val560Met (protein, UniProt P03372 1-595, looked up, variant A350M L346I M388Q G521S Y526D F461L V560M)
Estrogen receptor: MTMTLHTKASGMALLHQIQGNELEPLNRPQLKIPLERPLGEVYLDSSKPAVYNYPEGAAYEFNAAAAANAQVYGQTGLPYGPGSEAAAFGSNGLGGFPPLNSVSPSPLMLLHPPPQLSPFLQPHGQQVPYYLENEPSGYTVREAGPPAFYRPNSDNRRQGGRERLASTNDKGSMAMESAKETRYCAVCNDYASGYHYGVWSCEGCKAFFKRSIQGHNDYMCPATNQCTIDKNRRKSCQACRLRKCYEVGMMKGGIRKDRRGGRMLKHKRQRDDGEGRGEVGSAGDMRAANLWPSPLMIKRSKKNSLALSLTADQMVSALLDAEPPILYSEYDPTRPFSEASMMGLITNLMDRELVHMINWAKRVPGFVDLTLHDQVHLLECAWLEILQIGLVWRSMEHPGKLLFAPNLLLDRNQGKCVEGMVEIFDMLLATSSRFRMMNLQGEEFVCLKSIILLNSGVYTLLSSTLKSLEEKDHIHRVLDKITDTLIHLMAKAGLTLQQQHQRLAQLLLILSHIRHMSNKSMEHLDSMKCKNVVPLYDLLLEMLDAHRLHAPTSRGGASMEETDQSHLATAGSTSSHSLQKYYITGEAEGFPATV
In the case of B1, the “selectivity enhancement relative to the fourth round mutant (4-S)” value [1] is reported as “no selectivity enhancement”, the Selectivity ([2]; HEC-1 cells, EC50 of E2 divided by EC50 of DHB) is reported as “≧2.6 × 10^4” and the “Fold Improvement” value ([2]; HEC-1 cells, selectivity DHB vs E2 relative to wild-type hERα) is reported as “≧1.4 × 10^8”. For the same molecule, the “selectivity enhancement relative to the fourth round mutant (4-S)” value ([2]; in mammalian cells, DHB vs E2) was “no selectivity enhancement”.
